Data published in patent US20240270865A1 (INNATE PHARMA, published 2024).

T1: recombinant human soluble CD73 protein (cloned huCD73 with C-terminal 6xHis tag) (human, UniProt P21589 27-547)
T1 construct: also called recombinant CD73 protein; CD73 recombinant protein
T1 sequence: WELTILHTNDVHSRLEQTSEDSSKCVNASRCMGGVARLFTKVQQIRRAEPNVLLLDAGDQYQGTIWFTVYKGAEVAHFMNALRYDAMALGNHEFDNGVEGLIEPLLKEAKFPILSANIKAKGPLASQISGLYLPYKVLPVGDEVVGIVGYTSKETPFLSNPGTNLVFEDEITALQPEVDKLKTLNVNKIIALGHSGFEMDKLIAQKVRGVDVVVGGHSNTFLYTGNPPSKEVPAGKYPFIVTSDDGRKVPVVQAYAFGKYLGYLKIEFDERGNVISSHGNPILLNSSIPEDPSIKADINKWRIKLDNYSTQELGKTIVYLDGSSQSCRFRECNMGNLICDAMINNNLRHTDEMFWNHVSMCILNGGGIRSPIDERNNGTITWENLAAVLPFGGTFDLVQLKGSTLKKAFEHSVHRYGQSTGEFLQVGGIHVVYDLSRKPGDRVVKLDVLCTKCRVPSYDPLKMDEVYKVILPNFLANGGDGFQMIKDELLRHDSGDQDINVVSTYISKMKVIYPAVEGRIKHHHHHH


Target: T1, recombinant human soluble CD73 protein …
Assay: SPR, recombinant CD73 protein
Method: SPR measurements were performed on a Biacore™ T200 apparatus at 25° C. Protein-A (GE Healthcare) was immobilized on a Sensor Chip CM5 (GE Healthcare). […] The entire sensorgram sets were fitted using the 1:1 kinetic binding model. Bivalent affinities and kinetic association and dissociation rate constants are calculated.

Binder	binding result
H2L2 (antibody, human IgG1, V domains shown, also called H2 variant) VH: QIQLVQSGAEVKKPGASVKVSCKASGYAFTSYNMYWVRQAPGQSLEWMGYIDPYNGGSSYNLTFKGRVTITVDKSASTAYMELSSLRSEDTAVYYCARGYGNYKAWFAYWGQGTLVTVSS VL: DIQMTQSPSSLSASVGDRVTITCKASQSVSNDVAWYQQKPGKAPKLLIYYASTRYTGVPDRFSGSGYGTDFTFTISSLQPEDIATYYCQQDYSSLTFGQGTKLEIK	binds
H1L1 (antibody, human IgG1, V domains shown, also called H1 variant) VH: QIQLVQSGAEVKKPGASVKVSCKASGYTFTSYNMYWVRQAPGQRLEWMGYIDPYNGGSSYNLTFKGRVTITRDKSASTAYMELSSLRSEDTAVYYCARGYGNYKAWFAYWGQGTLVTVSS VL: DIQMTQSPSSLSASVGDRVTITCKASQSVSNDVAWYQQKPGKAPKLLIYYASTRYTGVPSRFSGSGYGTDFTFTISSLQPEDIATYYCQQDYSSLTFGQGTKLEIK	binds
H1L2 (antibody, human IgG1, V domains shown, also called H1 variant) VH: QIQLVQSGAEVKKPGASVKVSCKASGYTFTSYNMYWVRQAPGQRLEWMGYIDPYNGGSSYNLTFKGRVTITRDKSASTAYMELSSLRSEDTAVYYCARGYGNYKAWFAYWGQGTLVTVSS VL: DIQMTQSPSSLSASVGDRVTITCKASQSVSNDVAWYQQKPGKAPKLLIYYASTRYTGVPDRFSGSGYGTDFTFTISSLQPEDIATYYCQQDYSSLTFGQGTKLEIK	binds
H1L3 (antibody, human IgG1, V domains shown, also called H1 variant) VH: QIQLVQSGAEVKKPGASVKVSCKASGYTFTSYNMYWVRQAPGQRLEWMGYIDPYNGGSSYNLTFKGRVTITRDKSASTAYMELSSLRSEDTAVYYCARGYGNYKAWFAYWGQGTLVTVSS VL: DVQMTQSPSSLSASVGDRVTITCKASQSVSNDVAWYQQKPGKAPKLLIYYASTRYTGVPDRFSGSGYGTDFTFTISSLQPEDIATYYCQQDYSSLTFGQGTKLEIK	binds
H1L4 (antibody, human IgG1, V domains shown, also called H1 variant) VH: QIQLVQSGAEVKKPGASVKVSCKASGYTFTSYNMYWVRQAPGQRLEWMGYIDPYNGGSSYNLTFKGRVTITRDKSASTAYMELSSLRSEDTAVYYCARGYGNYKAWFAYWGQGTLVTVSS VL: DVQMTQSPSSLSASVGDRVTITCKASQSVSNDVAWYQQKPGKAPKLLIYYASTRYTGVPDRFSGSGYGTDFTFTISSLQPEDIATYFCQQDYSSLTFGQGTKLEIK	binds
H2L1 (antibody, human IgG1, V domains shown, also called H2 variant) VH: QIQLVQSGAEVKKPGASVKVSCKASGYAFTSYNMYWVRQAPGQSLEWMGYIDPYNGGSSYNLTFKGRVTITVDKSASTAYMELSSLRSEDTAVYYCARGYGNYKAWFAYWGQGTLVTVSS VL: DIQMTQSPSSLSASVGDRVTITCKASQSVSNDVAWYQQKPGKAPKLLIYYASTRYTGVPSRFSGSGYGTDFTFTISSLQPEDIATYYCQQDYSSLTFGQGTKLEIK	binds
H2L3 (antibody, human IgG1, V domains shown, also called H2 variant) VH: QIQLVQSGAEVKKPGASVKVSCKASGYAFTSYNMYWVRQAPGQSLEWMGYIDPYNGGSSYNLTFKGRVTITVDKSASTAYMELSSLRSEDTAVYYCARGYGNYKAWFAYWGQGTLVTVSS VL: DVQMTQSPSSLSASVGDRVTITCKASQSVSNDVAWYQQKPGKAPKLLIYYASTRYTGVPDRFSGSGYGTDFTFTISSLQPEDIATYYCQQDYSSLTFGQGTKLEIK	binds
H2L4 (antibody, human IgG1, V domains shown, also called H2 variant) VH: QIQLVQSGAEVKKPGASVKVSCKASGYAFTSYNMYWVRQAPGQSLEWMGYIDPYNGGSSYNLTFKGRVTITVDKSASTAYMELSSLRSEDTAVYYCARGYGNYKAWFAYWGQGTLVTVSS VL: DVQMTQSPSSLSASVGDRVTITCKASQSVSNDVAWYQQKPGKAPKLLIYYASTRYTGVPDRFSGSGYGTDFTFTISSLQPEDIATYFCQQDYSSLTFGQGTKLEIK	binds
H3L1 (antibody, human IgG1, V domains shown, also called H3 variant) VH: QIQLVQSGAEVKKPGASVKVSCKASGYAFTSYNMYWVRQAPGQSLEWIGYIDPYNGGSSYNLTFKGKATITVDKSASTAYMELSSLRSEDTAVYYCARGYGNYKAWFAYWGQGTLVTVSS VL: DIQMTQSPSSLSASVGDRVTITCKASQSVSNDVAWYQQKPGKAPKLLIYYASTRYTGVPSRFSGSGYGTDFTFTISSLQPEDIATYYCQQDYSSLTFGQGTKLEIK	binds
H3L2 (antibody, human IgG1, V domains shown, also called H3 variant) VH: QIQLVQSGAEVKKPGASVKVSCKASGYAFTSYNMYWVRQAPGQSLEWIGYIDPYNGGSSYNLTFKGKATITVDKSASTAYMELSSLRSEDTAVYYCARGYGNYKAWFAYWGQGTLVTVSS VL: DIQMTQSPSSLSASVGDRVTITCKASQSVSNDVAWYQQKPGKAPKLLIYYASTRYTGVPDRFSGSGYGTDFTFTISSLQPEDIATYYCQQDYSSLTFGQGTKLEIK	binds
H3L3 (antibody, human IgG1, V domains shown, also called H3 variant) VH: QIQLVQSGAEVKKPGASVKVSCKASGYAFTSYNMYWVRQAPGQSLEWIGYIDPYNGGSSYNLTFKGKATITVDKSASTAYMELSSLRSEDTAVYYCARGYGNYKAWFAYWGQGTLVTVSS VL: DVQMTQSPSSLSASVGDRVTITCKASQSVSNDVAWYQQKPGKAPKLLIYYASTRYTGVPDRFSGSGYGTDFTFTISSLQPEDIATYYCQQDYSSLTFGQGTKLEIK	binds
H3L4 (antibody, human IgG1, V domains shown, also called H3 variant) VH: QIQLVQSGAEVKKPGASVKVSCKASGYAFTSYNMYWVRQAPGQSLEWIGYIDPYNGGSSYNLTFKGKATITVDKSASTAYMELSSLRSEDTAVYYCARGYGNYKAWFAYWGQGTLVTVSS VL: DVQMTQSPSSLSASVGDRVTITCKASQSVSNDVAWYQQKPGKAPKLLIYYASTRYTGVPDRFSGSGYGTDFTFTISSLQPEDIATYFCQQDYSSLTFGQGTKLEIK	binds
H4L1 (antibody, human IgG1, V domains shown, also called H4 variant) VH: QIQLVQSGAEVKKPGASVKVSCKASGYAFASYNMYWVRQAPGQSLEWIGYIDPYNGGSSYNLTFKGKATLTVDKSASTAYMELSSLRSEDTAVYYCARGYGNYKAWFAYWGQGTLVTVSS VL: DIQMTQSPSSLSASVGDRVTITCKASQSVSNDVAWYQQKPGKAPKLLIYYASTRYTGVPSRFSGSGYGTDFTFTISSLQPEDIATYYCQQDYSSLTFGQGTKLEIK	binds
H4L2 (antibody, human IgG1, V domains shown, also called H4 variant) VH: QIQLVQSGAEVKKPGASVKVSCKASGYAFASYNMYWVRQAPGQSLEWIGYIDPYNGGSSYNLTFKGKATLTVDKSASTAYMELSSLRSEDTAVYYCARGYGNYKAWFAYWGQGTLVTVSS VL: DIQMTQSPSSLSASVGDRVTITCKASQSVSNDVAWYQQKPGKAPKLLIYYASTRYTGVPDRFSGSGYGTDFTFTISSLQPEDIATYYCQQDYSSLTFGQGTKLEIK	binds
H4L3 (antibody, human IgG1, V domains shown, also called H4 variant) VH: QIQLVQSGAEVKKPGASVKVSCKASGYAFASYNMYWVRQAPGQSLEWIGYIDPYNGGSSYNLTFKGKATLTVDKSASTAYMELSSLRSEDTAVYYCARGYGNYKAWFAYWGQGTLVTVSS VL: DVQMTQSPSSLSASVGDRVTITCKASQSVSNDVAWYQQKPGKAPKLLIYYASTRYTGVPDRFSGSGYGTDFTFTISSLQPEDIATYYCQQDYSSLTFGQGTKLEIK	binds
H4L4 (antibody, human IgG1, V domains shown, also called H4 variant) VH: QIQLVQSGAEVKKPGASVKVSCKASGYAFASYNMYWVRQAPGQSLEWIGYIDPYNGGSSYNLTFKGKATLTVDKSASTAYMELSSLRSEDTAVYYCARGYGNYKAWFAYWGQGTLVTVSS VL: DVQMTQSPSSLSASVGDRVTITCKASQSVSNDVAWYQQKPGKAPKLLIYYASTRYTGVPDRFSGSGYGTDFTFTISSLQPEDIATYFCQQDYSSLTFGQGTKLEIK	binds
